Variants at the floor of the assay were thinned out.
B1: TPR 5TU (parent)
chain: GGAUCUUCUCGAUCUAACAAAAAAGACAAAUCUGCCACAAAGCUUGAGAGCAUCUUCGGAUGCAGAGGCGGCAGCCUUCGGUGGCGCGAUAGCGCCAACGUUCUCAACUAUGACACGCAAAACGCGUGCUCCGUUGAAUGGAGUUUAUCAUG

Variants of: B1
Assay: polymerase ribozyme fitness, log enrichment relative to wild type (log ratio); higher = more active; in vitro selection for triplet polymerase activity
Procedure, shortened: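 A heterodimeric triplet polymerase ribozyme had each of its subunits mutagenized by PCR into a library, which was transcribed. One round of in vitro selection, done in triplicate, annealed each library with a biotinylated primer, its partner subunit and triplets, then incubated it frozen at −7 °C before gel excision of extended constructs, streptavidin-bead capture and RT-PCR. Fitness is the logarithm of genotype enrichment relative to wild-type enrichment, based on Illumina sequencing of inputs and outputs and inverse-variance-weighted replicate averages. A base-2 logarithm is used, and genotypes were kept only with ≥10 input reads and ≥1 read per output.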

Going from GGAUCUUCUCGAUCUACCAAAAAAGACAAAUCUGCCACAAAGCUUGAGAGCAUCUUCGGAUGCAGAGGCGGCAGCCUUCGUUGGAGCGAUAGCGUCAACGUUCUGAACUAUGACUCGCAAAACGCGUGCUCCGUUGAAUGGAGUUUAUCAUG [A17C G81U C85A C95U C105G A115U] to GGAUCUUCUCGAUCUAACAAACAAAACAAAUCUGCCACAAAGCUUGAGAGUAUCUUCGGAUGCAGCGGCGGCAGCCUUCGGUGGGGCGAUAGUGCCAACGUUCUCAACUAUGACAAGCAAAACGCGUGCUCCGUUGAAUGGAGUUUAUCAUG [A22C G25A C51U A66C C85G C93U C116A], the “polymerase ribozyme fitness (log ratio)” value falls from -3.03 to ≤ -4.2.

First: GGAUCUUCUCGAUCUAACAAAAAAGACAAAUCUGCCACAAAGCUUGAGAGCAACUUCGGAUGCAGAGGCGGCAGCCUUCGAUGGCGCGAUAGCGUCAACGUUCUCAACUAUGACACGCACAACGCGUGCUCCGUUGAAUGGAGGUUAUCAUG [U53A G81A C95U A120C U144G]
Second: GGAUCUUCUCGAUCUAACAAAAAAGACAAAUCUGCCACAAACCUUAAGAGCAUCUUCGGAUGCAGAGCCGGCAGCCUUCGGUGGCGCGAUAGCGACAACGUUCUCUAGUAUGACACGCAAAACGCGUGCUCCGUUGAAUGGAGUUUAUCAUG [G42C G46A G68C C95A A106U C108G]
The “polymerase ribozyme fitness (log ratio)” value of the first is higher: -1.05 for the first, ≤ -4.2 for the second.

Going from GGAUCUUCUCGAUCUAACAAAAAAGACAAAUCUGCCACAAAGCUUGCGAGCAUCUUCGGAUGCAGAGGCGGCAGCCUUCGGAGGCGCGAUAGCGCCAACGUUCUCAACUAUGACACGCAAAACGCGUGCUCCGUUGAAUGGAGUUUAUCAUG [A47C U82A] to GGAUCUUCUCGAUCUAACAUAACAGACAAAUCUGCCACAAAGCUUGCGAGCAUCGUCGGAUGCAGAGGCGGCAGCCUUCGGUGGCUCGAUGGCGCCAACGUUCUCAACUAUGACACGCAAAACGCGUGCUCCGUUGAAUGGAGUUUAUCAUG [A20U A23C A47C U55G G86U A91G], the “polymerase ribozyme fitness (log ratio)” value falls from -0.366 to ≤ -4.2.

GGAUCUUCUCGAUCUAACAAAAAAGACAAAUCUGCCACCAAGCUUGAGAGCAUCUUCGGAUGCAGAGGCGGCAGCCUUCGGUGGCGCGAUAUCGACAACGUUCUCAACUAUAACACGCAAAACGCGUGCUCCGUUGAAUGGAGUGUAUCAUG [A39C G92U C95A G112A U145G] and GGAUGUUCUCGAUCUAACAAAUAAGACAAAUCUGCCACAAAGCUUGAGAGCAUCUUCUGUUGCUGAGGCGGCAGCCUUCGGUCGCGCGAUAGCGCCAACGUUCUCAACUAUGACACGCAAAACGCGUGCUCCGUUGAAUGGAGUUUAUCAUG [C5G A22U G58U A60U A64U G83C] cannot be ordered by “polymerase ribozyme fitness (log ratio)” value: ≤ -4.2 for the first, ≤ -4.2 for the second.

GGAUCUUCUCGAUCUAACAAAAAAGACAAAUUUGCCACAAAGCUUGAGAGCAACUUCGGAUGCAGAGGCGGCAGCCUUCGGUGUCGCGAUAGCGCCAACGUUCUCAACUAUGACACGCAGAACGCGUUCUCCGUUGAAUGGUGUUUAUCAUG [C32U U53A G84U A120G G128U A142U] and GGAUCUUCUCGAUCUAACAAAAAUGACAAAACUGCCUCAAAGCUUGAGAGCAUCUUCGGAUGCAGAGGCGGCAGCCUUCGGUGGCGCGAUAGCGCCAACGUUCUCAACUAUGACACGCAAAACGCGUGCUCCGUUGAAUGGACUUUAUCAUG [A24U U31A A37U G143C] cannot be ordered by “polymerase ribozyme fitness (log ratio)” value: ≤ -4.2 for the first, ≤ -4.2 for the second.

Compared with GGAUCUUCUCGAUCUAACAAAAAAGACAAAUCUGCCACAAAGCUUGAGAGCAUCUUCGGAUGCAGAGGCGGCAGCCUUCGGUGGCGCGAUAGCGCCAAGGUUCUCAACUAUGACACGUAAAACGCGUGCUCCGUUGAAUGGAGUUUAACAUG [C99G C118U U148A], GGAUCUUCUCGAGCUAACAAAAAAGACAAAUCUGCCACAAAGCUUGAGAGCAUCUUCGGAUGCAGAGGCGGCAGCCUUCGGUGGCGCGAUACCGCCAACGUUCUCAACUAUGACACGCAAAACGCGUGCUCCGUUGAAUGGAGUUUAUCAUG [U13G G92C] is higher in “polymerase ribozyme fitness (log ratio)” value: ≤ -4.2 for the first, -2.36 for the second.

GGAUCUUCUCGAUCUAACAAAAAAGACAUAUCUGCCACAAUGCUUGAGAGCAUCUUCGGAUGCAGAGGUGGCAGCCUUCGGUGGCGCGAUAGCGACAACGUUCUCAACUAUGACACGGAAAACGUGUGCUCCGUUGAAUGGAGUUUAACAUG [A29U A41U C69U C95A C118G C125U U148A] and GGAUCUUCUCGGUCUAACAAAAAAGACAAAUCUGCCACAAAGCUUGAGAGCAUCUUCGGAUGCAGAGGCGGCAGCCUUCGAUGGCGCGAUAACGCCAACGUUCUCAACUAUGAAACGCAAAACGCGUGCUCCGUUGAAUGGAGUUUAUCAUU [A12G G81A G92A C114A G152U] cannot be ordered by “polymerase ribozyme fitness (log ratio)” value: ≤ -4.2 for the first, ≤ -4.2 for the second.

Compared with GGAUCUUCUCGAUCUAACAAAAAAGACAAAUCUGCCACAAAGCUUGAGACCAUCUUCGGAUGCAGAGGCGGCAGCCUUCGGUGGCGCGAUGGCGCCAACGUUCUCAACUAUGACACGCAAAACGCGUGCUCCGUUGAAUGGAGUUUAUCAUG [G50C A91G], GGAUCUUCACGAUCCAACAAAAAAGACAAAUCUGUCACAAAGCUUGAGAGCAUCUUCGGAUGCAGAGGCGAUAGCCGUCGGUGGCGAGAUAGCGCCAACGUUCUCAACUAUGACACGCUAAACCCGUGCUCCGUUGAAUGGAGUUUAUCAUG [U9A U15C C35U G71A C72U U77G C87A A119U G124C] is lower in “polymerase ribozyme fitness (log ratio)” value: -4 for the first, ≤ -4.2 for the second.

Compared with GGAUCUUCUCGAUCUAACAAAAAAGACAAAUCUGCCACAAAGCUUGAGAGCAUCUUCGGAUGCAGAGGCGGCAGCCUUCGGUGGCGCGAUAGCGCCAACGUUCUCAACUAUGACACGCAAACCGCAUGCUCCGUUGAAUGGAGUUUAUCAUG [A122C G126A], GGAUCUUCUCGAUCUAACAAAAAAGACAAAUCUGCCGCAAAGCUUGAGAGCAUCUUCGGAUGCAGAGGCGGCAGCCUUCGGUGGCGCGAUAGCGACAACGUUCUCAACUAUGACACGCAAAACGCGGGCUCCGUUGAAUGGAGUUUAUCAUG [A37G C95A U127G] is lower in “polymerase ribozyme fitness (log ratio)” value: -0.186 for the first, -4.15 for the second.

For GGAUCUUCUCGAUCUAACAAAAAAGACAAAUCUGCCACAAAGCUUGAGAGCAUAUUCGGAUGCAGAGGCUGCAGCCUUCGGUGGCGCGAUAGCACCAACGUUCUCAACUAUGACACGCAAAACGCGUGCUCCGUUGAAUGGAGUUUAUCAUG [C54A G70U G94A], the “polymerase ribozyme fitness (log ratio)” value was -4.02.

— the RNAGym collection of RNA variant scans (doi:10.1073/pnas.2313332121)
